What was measured:
Experiment in all cases: co-IP; CDC37-nanoKAZ interaction assay: cleared lysates (HENG buffer, 50 mM HEPES-KOH pH 7.9, 150 mM NaCl, 20 mM Na2MoO4, 0.5% Triton X-100) of 293T cells added to 96-well plates coated with anti-FLAG M2, 4 °C for 3 h; luminescence of the captured CDC37-nanoKAZ normalized to the amount of captured 3xFLAG-DYRK1A; in some experiments cells were treated with FINDY or RD0392 for 24 h before lysis
Details in all cases: partners not purified
3xFLAG-DYRK1A Y321F = target: T1, 3xFLAG-DYRK1A Y321F (human, UniProt Q13627 1-763, Y321F)
T1 construct: DYRK1A, the variant in which Ser529 corresponds to Ser520 of the other variant; As m2 with the substitution; also called Y321F mutant; source: 293T cells, transiently transfected, in lysate

[1] = target: T2, 3xFLAG-DYRK1A Y319F/Y321F (human, UniProt Q13627 1-763, Y319F | Y321F)
T2 construct: DYRK1A, the variant in which Ser529 corresponds to Ser520 of the other variant; As m2 with the two substitutions; also called Y319F/Y321F mutant; Y321F/Y319F; source: 293T cells, transiently transfected, in lysate

3xFLAG-DYRK1A K188R = target: T3, 3xFLAG-DYRK1A K188R (human, UniProt Q13627 1-763, K188R)
T3 construct: DYRK1A, the variant in which Ser529 corresponds to Ser520 of the other variant; As m2 with the substitution; also called K188R mutant; kinase-dead mutant; source: 293T cells, transiently transfected, in lysate

3xFLAG-DYRK1A S97A = target: T4, 3xFLAG-DYRK1A S97A (human, UniProt Q13627 1-763, S97A)
T4 construct: DYRK1A, the variant in which Ser529 corresponds to Ser520 of the other variant; As m2 with the substitution; also called S97A mutant; source: 293T cells, transiently transfected, in lysate

B1: CDC37 fused with luciferase nanoKAZ (natural protein, UniProt Q16543 1-378, looked up)
chain: MVDYSVWDHIEVSDDEDETHPNIDTASLFRWRHQARVERMEQFQKEKEELDRGCRECKRKVAECQRKLKELEVAEGGKAELERLQAEAQQLRKEERSWEQKLEEMRKKEKSMPWNVDTLSKDGFSKSMVNTKPEKTEEDSEEVREQKHKTFVEKYEKQIKHFGMLRRWDDSQKYLSDNVHLVCEETANYLVIWCIDLEVEEKCALMEQVAHQTIVMQFILELAKSLKVDPRACFRQFFTKIKTADRQYMEGFNDELEAFKERVRGRAKLRIEKAMKEYEEEERKKRLGPGGLDPVEVYESLPEELQKCFDVKDVQMLQDAISKMDPTDAKYHMQRCIDSGLWVPNSKASEAKEGEEAGPGDPLLEAVPKTGDEKDVSV
notes: kinase-specific co-chaperone CDC37; also called CDC37-nanoKAZ; source: 293T cells stably expressing CDC37-nanoKAZ, in lysate
fold change of luminescence relative to intact DYRK1A (3xFLAG-DYRK1A Y321F): 5.2 fold
fold change of luminescence relative to intact DYRK1A [1]: 6.2 fold
fold change of luminescence relative to intact DYRK1A (3xFLAG-DYRK1A K188R): 54 fold
fold change of luminescence relative to intact DYRK1A (3xFLAG-DYRK1A S97A): 2.2 fold
